Test results as given in patent publication US20260098102A1 (NATIONAL UNIVERSITY CORPORATION KOBE UNIVERSITY, published 2026).
Positions count from the first letter of the chain named.

T1: mouse SIRPA BALB/c (mouse (BALB/c), UniProt P97797 35-513)
T1 construct: FLAG-tagged (pFLAG V5-DEST), on 293α cells
T1 chain: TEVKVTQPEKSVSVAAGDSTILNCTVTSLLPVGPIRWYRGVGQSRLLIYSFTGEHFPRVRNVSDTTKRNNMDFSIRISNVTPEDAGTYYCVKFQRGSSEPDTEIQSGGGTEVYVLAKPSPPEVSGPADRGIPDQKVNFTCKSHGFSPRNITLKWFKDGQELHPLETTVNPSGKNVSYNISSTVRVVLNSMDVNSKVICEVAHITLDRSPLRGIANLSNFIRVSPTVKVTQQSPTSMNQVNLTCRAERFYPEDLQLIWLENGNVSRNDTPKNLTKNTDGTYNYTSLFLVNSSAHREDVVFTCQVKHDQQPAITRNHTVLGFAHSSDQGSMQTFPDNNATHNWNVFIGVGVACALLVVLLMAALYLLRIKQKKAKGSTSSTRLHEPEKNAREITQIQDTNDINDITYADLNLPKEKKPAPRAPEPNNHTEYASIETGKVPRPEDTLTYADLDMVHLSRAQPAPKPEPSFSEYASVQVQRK

T2: cSIRPA_ECD (cynomolgus monkey)
T2 construct: Secreted recombinant protein
T2 chain: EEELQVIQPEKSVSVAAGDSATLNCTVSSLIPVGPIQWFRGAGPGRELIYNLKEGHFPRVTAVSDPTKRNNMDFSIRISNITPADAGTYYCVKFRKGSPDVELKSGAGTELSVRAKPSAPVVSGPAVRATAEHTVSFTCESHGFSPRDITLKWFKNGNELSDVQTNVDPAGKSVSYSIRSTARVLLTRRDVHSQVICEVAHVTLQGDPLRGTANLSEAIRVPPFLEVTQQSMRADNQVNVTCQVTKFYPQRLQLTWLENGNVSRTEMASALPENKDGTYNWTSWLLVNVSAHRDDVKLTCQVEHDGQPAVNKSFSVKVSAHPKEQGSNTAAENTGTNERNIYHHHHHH

B1: human chimeric anti-SIRPA antibody cD13 (antibody, human IgG4 S228P, kappa, F234A L235A, V domains shown)
VH: EVQLVESGGGLVQPGRSLKLSCLASGFTFSDYGMIWVRQAPGKGLEWVASISSSSSYIYYADTVKGRFTISRENAKNTLFLHMTSLRSEDTALYYCARRYYGFNYPFDYWGQGVMVTVSS
VL: DTVLTQSPALAVSLGQRVTISCGASKSVRTYMHWYQQKSGQQPKLLIYSASNLEAGVPSRFSGSGSGTDFTLTIDPVEADDIANYYCQQSNEPPYTFGAGTKLELKR
notes: Human IgG4proFALA heavy chain, human kappa light chain; also called cD13 (IgG4pf); human chimeric antibody D13
B2: humanized anti-SIRPA antibody hD13_H1L3 (antibody, human IgG4 S228P, kappa, F234A L235A, V domains shown)
VH: QVQLVESGGGVVQPGRSLRLSCAASGFTFSDYGMIWVRQAPGKGLEWVASISSSSSYIYYADSVKGRFTISRDNSKNRLYLQMNSLRAEDTAVYYCARRYYGFNYPFDYWGQGTMVTVSS
VL: DTQLTQSPSSLSASVGQRVTITCGASKSVRTYMHWYQQKPGKQPKLLIYSASNLEAGVPSRFSGSGSGTDFTLTISSLQPEDFATYYCQQSNEPPYTFGQGTKLEIKR
notes: hH1 heavy chain (IgG4proFALA) and hL3 kappa light chain; also called hD13_HIL3; HIL3 antibody
B3: humanized anti-SIRPA antibody hD13_H1L4 (antibody, human IgG4 S228P, kappa, F234A L235A, V domains shown)
VH: B2 VH
VL: DTVLTQSPDSLAVSLGQRATINCGASKSVRTYMHWYQQKPGQQPKLLIYSASNLEAGVPSRFSGSGSGTDFTLTISSLQAEDVAVYYCQQSNEPPYTFGQGTKVEIKR
notes: hH1 heavy chain (IgG4proFALA) and hL4 kappa light chain; also called hD13_HIL4; hD13_HIL4h
B4: humanized anti-SIRPA antibody hD13_H2L2 (antibody, human IgG4 S228P, kappa, F234A L235A, V domains shown)
VH: B2 VH with Q1E, R78T
VL: B2 VL with D1A, T2I, Q43A
notes: hH2 heavy chain (IgG4proFALA) and hL2 kappa light chain; also called H2L2 antibody
B5: humanized anti-SIRPA antibody hD13_H2L3 (antibody, human IgG4 S228P, kappa, F234A L235A, V domains shown)
VH: B2 VH with Q1E, R78T
VL: B2 VL
notes: hH2 heavy chain (IgG4proFALA) and hL3 kappa light chain; also called H2L3 antibody

What was measured:
mouse SIRPA BALB/c = target: T1, mouse SIRPA BALB/c; experiment: cell-based ELISA on 293α cells expressing FLAG-tagged mouse SIRPA (BALB/c); Abs 490 normalized to FLAG tag [ii]
Protocol: (§1) The 293a cells, described in Example 1)-6, were prepared at 5× 10⁵ cells/mL in a 10% FBS-containing DMEM medium. pFLAG V5-DEST-SIRPA_V1-V10, pFLAG V5-DEST-monkey SIRPA, pFLAG V5-DEST-mouse SIRPA, or pFLAG V5-DEST was introduced into the cells using Lipofectamine LTX (Invitrogen), and 100 μL each was aliquoted to a 96-well plate (Corning Incorporated) and cultured overnight in a 10% FBS-containing DMEM medium at 37° C. under a 5% CO₂ condition. The obtained introduced cells were used for cell-based ELISA in a state that they adhered. After the culture supernatant was removed, 50 μL per well of hD13_HIL3, hD13_HIL4h, hD13_H2L2, hD13_H2L3, or cD13 prepared in Examples 6 and 7 or a control antibody was added to each of various SIRPA genes-introduced cells at a final concentration of 0 to 10,000 ng/ml, and the mixture was allowed to stand at 4° C. for one hour. Thereafter, binding to human SIRPA was evaluated in the same manner as in Example 5-1.

human SIRPA_V1 protein = target: T3, human SIRPA_V1 protein (human, UniProt P78324 31-504); experiment: cell-based ELISA on 293α cells expressing FLAG-tagged SIRPA_V1; Abs 490 normalized to FLAG tag [i]
T3 construct: Expressed on 293α cells from pcDNA3.2 V5-DEST or pFLAG V5-DEST (FLAG-tagged) vectors; also called human SIRPA Variant 1; hSIRPA V1
Protocol: as §1

human SIRPA_V7 = target: T4, human SIRPA_V7 (human, UniProt P78324 31-504); experiment: cell-based ELISA on 293α cells expressing FLAG-tagged SIRPA_V7; Abs 490 normalized to FLAG tag [iii]
T4 construct: FLAG-tagged (pFLAG V5-DEST), on 293α cells; also called human SIRPA Variant 7
Protocol: as §1

human SIRPA_V2 protein = target: T5, human SIRPA_V2 protein (human, UniProt P78324 31-504); experiment: blocking cell-based ELISA: peroxidase-labeled CD47-Fc (1 µg/mL) on 293α cells expressing SIRPA_V2; y axis = CD47-Fc signal relative to no antibody (100)
T5 construct: Expressed on 293α cells from pcDNA3.2 V5-DEST or pFLAG V5-DEST (FLAG-tagged) vectors; also called human SIRPA Variant 2; ECD variant (full-length, amino acids 1 to 504)
Protocol: After the culture supernatant of human SIRPA or monkey SIRPA expression vector-introduced 293α cells prepared in Example 8)-1 was removed, 50 μL per well of hD13_HIL3, hD13_HIL4h, hD13_H2L2, or hD13_H2L3 diluted with 5% FBS-containing PBS to a final concentration of 0 to 10,000 ng/ml was added to each of pcDNA3.2 V5-DEST-SIRPA_V1, pcDNA3.2 V5-DEST-SIRPA_V2, pcDNA3.2 V5-DEST-monkey SIRPA, and pcDNA3.2 V5-DEST-introduced 293α cells, immediately followed by addition of peroxidase-labeled CD47-Fc prepared with 5% FBS-containing PBS at 1 μg/mL, and the mixture was allowed to stand at 4° C. for one hour. Thereafter, the SIRPA-CD47 binding inhibitory activity was evaluated in the same manner as in 1)-6-3.

cSIRPA_ECD = target: T2, cSIRPA_ECD; experiment: SPR Biacore T200, antibody captured on anti-human IgG (Fc), monkey SIRPA_ECD as analyte, 1:1 model
Protocol: The dissociation constants of hD13_HIL3, hD13_HIL4, hD13_H2L2, and hD13_H2L3 prepared in Example 7 against human SIRPA_V1_IgV and monkey SIRPA_ECD prepared in Example 1 were measured by a capture method of capturing a humanized antibody as a ligand to an Anti-Human IgG (Fc) antibody immobilized using Human Antibody Capture Kit (GE Healthcare Bioscience Corp.) and measuring an antigen as an analyte, using Biacore T200 (GE Healthcare Bioscience Corp.). HBS-EP+ (GE Healthcare Bioscience Corp.) was used as a running buffer, and CM5 (GE Healthcare Bioscience Corp.) was used as a sensor chip. Onto the chip, 1 μg/mL humanized antibody was added at 10 μL/min for 60 seconds, and then a serially diluted solution (0.5 to 8 μg/mL) of human SIRPA protein or a serially diluted solution (1 to 16 μg/mL) of monkey SIRPA protein was added as an antigen at a flow rate of 30 μL/min for 120 seconds, and subsequently the dissociation phase for 600 seconds was monitored. As a regenerant, 3 M magnesium chloride (GE Healthcare Bioscience Corp.) was added at a flow rate of 20 μL/min for 30 seconds. For data analysis, a binding rate constant (ka), a dissociation rate constant (kd), and a dissociation constant (KD; KD=kd/ka) were calculated using a 1:1 binding model.

T3 sequence (P78324 31-504 limits assumed): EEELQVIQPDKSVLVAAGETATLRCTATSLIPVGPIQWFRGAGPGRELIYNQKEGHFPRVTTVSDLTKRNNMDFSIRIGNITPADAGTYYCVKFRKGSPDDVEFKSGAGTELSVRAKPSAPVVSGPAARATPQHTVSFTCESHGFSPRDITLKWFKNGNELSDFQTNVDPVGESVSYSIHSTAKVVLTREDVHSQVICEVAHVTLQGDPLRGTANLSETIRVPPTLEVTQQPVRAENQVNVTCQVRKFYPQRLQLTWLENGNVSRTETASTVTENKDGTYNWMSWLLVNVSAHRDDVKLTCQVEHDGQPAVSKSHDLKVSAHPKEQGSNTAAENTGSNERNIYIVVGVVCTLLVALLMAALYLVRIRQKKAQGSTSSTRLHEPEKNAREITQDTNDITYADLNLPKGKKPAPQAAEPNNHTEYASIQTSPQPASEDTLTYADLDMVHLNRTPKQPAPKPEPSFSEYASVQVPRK
T4 sequence (P78324 other isoform, or with tags, fused parts or gaps limits assumed): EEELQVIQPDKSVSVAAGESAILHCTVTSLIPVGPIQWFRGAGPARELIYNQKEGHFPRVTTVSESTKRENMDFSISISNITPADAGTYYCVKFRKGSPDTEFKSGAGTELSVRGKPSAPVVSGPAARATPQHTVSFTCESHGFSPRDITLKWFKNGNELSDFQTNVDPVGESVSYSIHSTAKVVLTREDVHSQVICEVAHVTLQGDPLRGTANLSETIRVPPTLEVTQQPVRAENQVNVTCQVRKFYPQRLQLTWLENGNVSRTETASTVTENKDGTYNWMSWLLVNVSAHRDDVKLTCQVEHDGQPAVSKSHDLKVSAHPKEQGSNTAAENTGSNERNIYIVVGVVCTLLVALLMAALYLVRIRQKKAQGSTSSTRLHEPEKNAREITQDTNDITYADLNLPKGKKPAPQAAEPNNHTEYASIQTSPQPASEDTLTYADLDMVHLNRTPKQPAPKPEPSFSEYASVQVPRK
T5 sequence (P78324 other isoform, or with tags, fused parts or gaps limits assumed): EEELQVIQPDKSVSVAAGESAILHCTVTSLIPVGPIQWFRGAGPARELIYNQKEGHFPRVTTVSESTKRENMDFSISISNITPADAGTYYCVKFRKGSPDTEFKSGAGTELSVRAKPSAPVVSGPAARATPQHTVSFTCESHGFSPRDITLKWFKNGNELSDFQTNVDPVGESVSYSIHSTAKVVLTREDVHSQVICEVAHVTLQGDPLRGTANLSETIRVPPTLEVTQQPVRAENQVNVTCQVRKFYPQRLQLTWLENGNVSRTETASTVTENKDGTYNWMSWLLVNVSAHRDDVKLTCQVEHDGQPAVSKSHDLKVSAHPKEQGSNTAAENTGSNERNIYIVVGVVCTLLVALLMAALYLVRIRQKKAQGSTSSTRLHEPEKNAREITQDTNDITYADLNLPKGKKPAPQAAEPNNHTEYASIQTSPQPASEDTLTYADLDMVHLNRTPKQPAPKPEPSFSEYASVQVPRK

Binder | binding result (mouse SIRPA BALB/c) | EC50 (read off the curve) (human SIRPA_V1 protein) [µg/mL] | EC50 (read off the curve) (human SIRPA_V7) [µg/mL] | IC50 (read off the curve) (human SIRPA_V2 protein) [µg/mL] | Kd (cSIRPA_ECD) [nM]
B1 | no binding (tested: 10000 ng/mL) | ~0.05 | ~0.04 | ~0.8 | –
B2 | no binding (tested: 10000 ng/mL) | ~0.04 | ~0.04 | ~0.6 | 38.6
B3 | no binding (tested: 10000 ng/mL) | ~0.04 | ~0.04 | ~0.7 | 83.9
B4 | no binding (tested: 10000 ng/mL) | ~0.04 | ~0.04 | ~0.8 | 162
B5 | no binding (tested: 10000 ng/mL) | ~0.05 | ~0.04 | ~0.7 | 54.2
